For 3 substances, fold weaker affinity against WT sFc and fold change in affinity against WT sFc results are on record in paper doi:10.1101/2024.12.16.628704.

Test [1] has as its target sialylated IgG1 V11 (G237D, P238D, H268D, P271G, A330R) Fc (human). Nature of the test: SPR. Background: SPR reads the build-up and loss of mass on a sensor chip optically.
In test [2] the target is sialylated IgG1 GA (G236A) Fc (human). Nature of the test: SPR.

“FcγRIA (CD64) (from UniProt P12314 16-374) (receptor)” registered a fold weaker affinity against WT sFc in test [1] of 193 fold. On to “FcγRIIB (CD32b), as used in SPR with Fc proteins (from UniProt P31994 43-310) (receptor)”, for which, in test [1], the fold change in affinity against WT sFc came out at 37 fold. In the case of “FcγRIIA (CD32a), variant not named in the sentence (from UniProt P12318 34-317) (receptor)”, in test [2], the fold change in affinity against WT sFc came to 10 fold.
